The text below walks through data of patent publication US8951961B2, “Structural and mechanistic basis for novel compound biosynthesis using 4-electron hexose oxidase” (Academia Sinica, priority 2009, dated 2015).

The test system of this series is Dbv29. Put plainly: Relative enzymatic activities of Dbv29 mutants. It counts as biochemical, Nonomuraea sp. ATCC39727. Particulars: for Relative activity: relative to WT.

B1: W399A (protein)
chain: MTGGTGADAASAGASSTRPELRGERCLPPAGPVKVTPDDPRYLNLKLRGANSRFNGEPDYIHLVGSTQQVADAVEETVRTGKRVAVRSGGHCFEDFVDNPDVKVIIDMSLLTEIAYDPSMNAFLIEPGNTLSEVYEKLYLGWNVTIPGGVCGGVGVGGHICGGGYGPLSRQFGSVVDYLYAVEVVVVNKQGKARVIVATRERDDPHHDLWWAHTGGGGGNFGVVTKYWMRVPEDVGRNPERLLPKPPATLLTSTVTFDWAGMTEAAFSRLLRNHGEWYERNSGPDSPYTGLWSQLMIGNEVPGMGESGFMMPIQVDATRPDARRLLDAHIEAVIDGVPPAEVPEPIEQRWLASTPGRGGRGPASKTKAGYLRKRLTDRQIQAVYENMTHMDGIDYGAVALIGYGGKVNTVDPAATALPQRDAILKVNYITGWANPGNEAKHLTWVRKLYADVYAETGGVPVPNDVSDGAYINYPDSDLADPGLNTSGVPWHDLYYKGNHPRLRKVKAAYDPRNHFHHALSIRP
Consider B1, for which the “catalytic activity” value is listed as “no product was produced”.

B2: H91A/C151A (protein)
chain: MTGGTGADAASAGASSTRPELRGERCLPPAGPVKVTPDDPRYLNLKLRGANSRFNGEPDYIHLVGSTQQVADAVEETVRTGKRVAVRSGGACFEDFVDNPDVKVIIDMSLLTEIAYDPSMNAFLIEPGNTLSEVYEKLYLGWNVTIPGGVAGGVGVGGHICGGGYGPLSRQFGSVVDYLYAVEVVVVNKQGKARVIVATRERDDPHHDLWWAHTGGGGGNFGVVTKYWMRVPEDVGRNPERLLPKPPATLLTSTVTFDWAGMTEAAFSRLLRNHGEWYERNSGPDSPYTGLWSQLMIGNEVPGMGESGFMMPIQVDATRPDARRLLDAHIEAVIDGVPPAEVPEPIEQRWLASTPGRGGRGPASKTKAGYLRKRLTDRQIQAVYENMTHMDGIDYGAVWLIGYGGKVNTVDPAATALPQRDAILKVNYITGWANPGNEAKHLTWVRKLYADVYAETGGVPVPNDVSDGAYINYPDSDLADPGLNTSGVPWHDLYYKGNHPRLRKVKAAYDPRNHFHHALSIRP
As to B2, the “activity relative to WT” value stood at 5% and the Relative activity was found to be 0.05.

B3: T366A (protein)
chain: MTGGTGADAASAGASSTRPELRGERCLPPAGPVKVTPDDPRYLNLKLRGANSRFNGEPDYIHLVGSTQQVADAVEETVRTGKRVAVRSGGHCFEDFVDNPDVKVIIDMSLLTEIAYDPSMNAFLIEPGNTLSEVYEKLYLGWNVTIPGGVCGGVGVGGHICGGGYGPLSRQFGSVVDYLYAVEVVVVNKQGKARVIVATRERDDPHHDLWWAHTGGGGGNFGVVTKYWMRVPEDVGRNPERLLPKPPATLLTSTVTFDWAGMTEAAFSRLLRNHGEWYERNSGPDSPYTGLWSQLMIGNEVPGMGESGFMMPIQVDATRPDARRLLDAHIEAVIDGVPPAEVPEPIEQRWLASTPGRGGRGPASKAKAGYLRKRLTDRQIQAVYENMTHMDGIDYGAVWLIGYGGKVNTVDPAATALPQRDAILKVNYITGWANPGNEAKHLTWVRKLYADVYAETGGVPVPNDVSDGAYINYPDSDLADPGLNTSGVPWHDLYYKGNHPRLRKVKAAYDPRNHFHHALSIRP
For the molecule B3, the “activity relative to WT” value was 11% and the Relative activity is 0.11.

B4: I401A (protein)
chain: MTGGTGADAASAGASSTRPELRGERCLPPAGPVKVTPDDPRYLNLKLRGANSRFNGEPDYIHLVGSTQQVADAVEETVRTGKRVAVRSGGHCFEDFVDNPDVKVIIDMSLLTEIAYDPSMNAFLIEPGNTLSEVYEKLYLGWNVTIPGGVCGGVGVGGHICGGGYGPLSRQFGSVVDYLYAVEVVVVNKQGKARVIVATRERDDPHHDLWWAHTGGGGGNFGVVTKYWMRVPEDVGRNPERLLPKPPATLLTSTVTFDWAGMTEAAFSRLLRNHGEWYERNSGPDSPYTGLWSQLMIGNEVPGMGESGFMMPIQVDATRPDARRLLDAHIEAVIDGVPPAEVPEPIEQRWLASTPGRGGRGPASKTKAGYLRKRLTDRQIQAVYENMTHMDGIDYGAVWLAGYGGKVNTVDPAATALPQRDAILKVNYITGWANPGNEAKHLTWVRKLYADVYAETGGVPVPNDVSDGAYINYPDSDLADPGLNTSGVPWHDLYYKGNHPRLRKVKAAYDPRNHFHHALSIRP
Consider B4, for which the Relative activity came to 0.09.

B5: C151A (protein)
chain: MTGGTGADAASAGASSTRPELRGERCLPPAGPVKVTPDDPRYLNLKLRGANSRFNGEPDYIHLVGSTQQVADAVEETVRTGKRVAVRSGGHCFEDFVDNPDVKVIIDMSLLTEIAYDPSMNAFLIEPGNTLSEVYEKLYLGWNVTIPGGVAGGVGVGGHICGGGYGPLSRQFGSVVDYLYAVEVVVVNKQGKARVIVATRERDDPHHDLWWAHTGGGGGNFGVVTKYWMRVPEDVGRNPERLLPKPPATLLTSTVTFDWAGMTEAAFSRLLRNHGEWYERNSGPDSPYTGLWSQLMIGNEVPGMGESGFMMPIQVDATRPDARRLLDAHIEAVIDGVPPAEVPEPIEQRWLASTPGRGGRGPASKTKAGYLRKRLTDRQIQAVYENMTHMDGIDYGAVWLIGYGGKVNTVDPAATALPQRDAILKVNYITGWANPGNEAKHLTWVRKLYADVYAETGGVPVPNDVSDGAYINYPDSDLADPGLNTSGVPWHDLYYKGNHPRLRKVKAAYDPRNHFHHALSIRP
Take B5: the “activity relative to WT” value came out at 23% and the Relative activity is 0.23.

B6: H91A (protein)
chain: MTGGTGADAASAGASSTRPELRGERCLPPAGPVKVTPDDPRYLNLKLRGANSRFNGEPDYIHLVGSTQQVADAVEETVRTGKRVAVRSGGACFEDFVDNPDVKVIIDMSLLTEIAYDPSMNAFLIEPGNTLSEVYEKLYLGWNVTIPGGVCGGVGVGGHICGGGYGPLSRQFGSVVDYLYAVEVVVVNKQGKARVIVATRERDDPHHDLWWAHTGGGGGNFGVVTKYWMRVPEDVGRNPERLLPKPPATLLTSTVTFDWAGMTEAAFSRLLRNHGEWYERNSGPDSPYTGLWSQLMIGNEVPGMGESGFMMPIQVDATRPDARRLLDAHIEAVIDGVPPAEVPEPIEQRWLASTPGRGGRGPASKTKAGYLRKRLTDRQIQAVYENMTHMDGIDYGAVWLIGYGGKVNTVDPAATALPQRDAILKVNYITGWANPGNEAKHLTWVRKLYADVYAETGGVPVPNDVSDGAYINYPDSDLADPGLNTSGVPWHDLYYKGNHPRLRKVKAAYDPRNHFHHALSIRP
On to B6, for which the “activity relative to WT” value came out at 11% and the Relative activity amounted to 0.11.

B7: C161A (protein)
chain: MTGGTGADAASAGASSTRPELRGERCLPPAGPVKVTPDDPRYLNLKLRGANSRFNGEPDYIHLVGSTQQVADAVEETVRTGKRVAVRSGGHCFEDFVDNPDVKVIIDMSLLTEIAYDPSMNAFLIEPGNTLSEVYEKLYLGWNVTIPGGVCGGVGVGGHIAGGGYGPLSRQFGSVVDYLYAVEVVVVNKQGKARVIVATRERDDPHHDLWWAHTGGGGGNFGVVTKYWMRVPEDVGRNPERLLPKPPATLLTSTVTFDWAGMTEAAFSRLLRNHGEWYERNSGPDSPYTGLWSQLMIGNEVPGMGESGFMMPIQVDATRPDARRLLDAHIEAVIDGVPPAEVPEPIEQRWLASTPGRGGRGPASKTKAGYLRKRLTDRQIQAVYENMTHMDGIDYGAVWLIGYGGKVNTVDPAATALPQRDAILKVNYITGWANPGNEAKHLTWVRKLYADVYAETGGVPVPNDVSDGAYINYPDSDLADPGLNTSGVPWHDLYYKGNHPRLRKVKAAYDPRNHFHHALSIRP
B7 showed a Relative activity of 0.84.

B8: T366E (protein)
chain: MTGGTGADAASAGASSTRPELRGERCLPPAGPVKVTPDDPRYLNLKLRGANSRFNGEPDYIHLVGSTQQVADAVEETVRTGKRVAVRSGGHCFEDFVDNPDVKVIIDMSLLTEIAYDPSMNAFLIEPGNTLSEVYEKLYLGWNVTIPGGVCGGVGVGGHICGGGYGPLSRQFGSVVDYLYAVEVVVVNKQGKARVIVATRERDDPHHDLWWAHTGGGGGNFGVVTKYWMRVPEDVGRNPERLLPKPPATLLTSTVTFDWAGMTEAAFSRLLRNHGEWYERNSGPDSPYTGLWSQLMIGNEVPGMGESGFMMPIQVDATRPDARRLLDAHIEAVIDGVPPAEVPEPIEQRWLASTPGRGGRGPASKEKAGYLRKRLTDRQIQAVYENMTHMDGIDYGAVWLIGYGGKVNTVDPAATALPQRDAILKVNYITGWANPGNEAKHLTWVRKLYADVYAETGGVPVPNDVSDGAYINYPDSDLADPGLNTSGVPWHDLYYKGNHPRLRKVKAAYDPRNHFHHALSIRP
With B8, the “activity relative to WT” value is 5% and the Relative activity turned out to be 0.05.

B9: Y165F/Y473F (protein)
chain: MTGGTGADAASAGASSTRPELRGERCLPPAGPVKVTPDDPRYLNLKLRGANSRFNGEPDYIHLVGSTQQVADAVEETVRTGKRVAVRSGGHCFEDFVDNPDVKVIIDMSLLTEIAYDPSMNAFLIEPGNTLSEVYEKLYLGWNVTIPGGVCGGVGVGGHICGGGFGPLSRQFGSVVDYLYAVEVVVVNKQGKARVIVATRERDDPHHDLWWAHTGGGGGNFGVVTKYWMRVPEDVGRNPERLLPKPPATLLTSTVTFDWAGMTEAAFSRLLRNHGEWYERNSGPDSPYTGLWSQLMIGNEVPGMGESGFMMPIQVDATRPDARRLLDAHIEAVIDGVPPAEVPEPIEQRWLASTPGRGGRGPASKTKAGYLRKRLTDRQIQAVYENMTHMDGIDYGAVWLIGYGGKVNTVDPAATALPQRDAILKVNYITGWANPGNEAKHLTWVRKLYADVYAETGGVPVPNDVSDGAYINFPDSDLADPGLNTSGVPWHDLYYKGNHPRLRKVKAAYDPRNHFHHALSIRP
Regarding B9, the “catalytic activity” value is listed as “total loss of catalytic activity”.

B10: W399F (protein)
chain: MTGGTGADAASAGASSTRPELRGERCLPPAGPVKVTPDDPRYLNLKLRGANSRFNGEPDYIHLVGSTQQVADAVEETVRTGKRVAVRSGGHCFEDFVDNPDVKVIIDMSLLTEIAYDPSMNAFLIEPGNTLSEVYEKLYLGWNVTIPGGVCGGVGVGGHICGGGYGPLSRQFGSVVDYLYAVEVVVVNKQGKARVIVATRERDDPHHDLWWAHTGGGGGNFGVVTKYWMRVPEDVGRNPERLLPKPPATLLTSTVTFDWAGMTEAAFSRLLRNHGEWYERNSGPDSPYTGLWSQLMIGNEVPGMGESGFMMPIQVDATRPDARRLLDAHIEAVIDGVPPAEVPEPIEQRWLASTPGRGGRGPASKTKAGYLRKRLTDRQIQAVYENMTHMDGIDYGAVFLIGYGGKVNTVDPAATALPQRDAILKVNYITGWANPGNEAKHLTWVRKLYADVYAETGGVPVPNDVSDGAYINYPDSDLADPGLNTSGVPWHDLYYKGNHPRLRKVKAAYDPRNHFHHALSIRP
As for B10, the “activity relative to WT” value is 15% and the Relative activity was 0.16.
